The target of this test is soluble full length KLK2 protein (human kallikrein-2 6-His protein) (human) (UniProt P20151). In words: SPR; antibody captured on a chip coated with anti-Fc antibody, soluble hK2 injected, 1:1 Langmuir fit.

From US20220356266A1 come the findings set out here.

A word on the Kd: it is the equilibrium constant for the complex coming apart. A low value points to higher affinity.

B1: KL2B30 Fab (KLCB80) (Fab, V domains shown)
VH: QVQLQESGPGLVKPSETLSLTCTVSGGSISSYYWSWIRQPPGKGLEWIGYIYYSGSTNYNPSLKSRVTISVDTSKNQFSLKLSSVTAADTAVYYCAGTTIFGVVTPNFYYGMDVWGQGTTVTVSS
VL: DIQMTQSPSFLSASVGDRVTITCRASQGISSYLAWYQQKPGKAPKFLIYAASTLQSGVPSRFSGSGSGTEFTLTISSLQPEDFATYYCQQLNSYPLTFGGGTKVEIKR
Consider B1, for which the Kd was determined as 0.46 nM.
